# Where no end group is shown, it is not given here.
# Columns and labels:
# Experiment in all cases: cell-based or functional assay
# GPR109A = GPR109A (UniProt Q8TDS4 1-363)
# F2RL1 = F2RL1 (UniProt P55085 26-397, limits assumed)
# NPFFR1 = NPFFR1 (UniProt Q9GZQ6 1-430)
# C5L2 = C5L2 (UniProt Q9P296 1-337)
# CALCRL-RAMP2 = CALCRL-RAMP2 (UniProt Q16602 23-461; O60895 43-175)
# EBI2 = EBI2 (UniProt P32249 1-361)
# PTHR2 = PTHR2 (UniProt P49190 25-550)
# FPR1 = target: T1, FPR1 (UniProt P21462 1-350)
# T1 sequence (looked up): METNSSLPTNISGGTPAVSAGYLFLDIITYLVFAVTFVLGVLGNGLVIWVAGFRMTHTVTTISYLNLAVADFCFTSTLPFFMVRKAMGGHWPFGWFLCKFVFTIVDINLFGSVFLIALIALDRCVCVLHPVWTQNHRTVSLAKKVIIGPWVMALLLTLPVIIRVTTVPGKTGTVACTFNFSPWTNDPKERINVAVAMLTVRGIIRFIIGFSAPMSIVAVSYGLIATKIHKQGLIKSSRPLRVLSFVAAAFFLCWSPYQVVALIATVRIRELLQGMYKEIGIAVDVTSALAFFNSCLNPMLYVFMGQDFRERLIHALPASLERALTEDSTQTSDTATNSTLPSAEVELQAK
# NPSR1B = target: T2, NPSR1B (UniProt Q6W5P4-4 1-377, limits assumed)
# T2 sequence (looked up): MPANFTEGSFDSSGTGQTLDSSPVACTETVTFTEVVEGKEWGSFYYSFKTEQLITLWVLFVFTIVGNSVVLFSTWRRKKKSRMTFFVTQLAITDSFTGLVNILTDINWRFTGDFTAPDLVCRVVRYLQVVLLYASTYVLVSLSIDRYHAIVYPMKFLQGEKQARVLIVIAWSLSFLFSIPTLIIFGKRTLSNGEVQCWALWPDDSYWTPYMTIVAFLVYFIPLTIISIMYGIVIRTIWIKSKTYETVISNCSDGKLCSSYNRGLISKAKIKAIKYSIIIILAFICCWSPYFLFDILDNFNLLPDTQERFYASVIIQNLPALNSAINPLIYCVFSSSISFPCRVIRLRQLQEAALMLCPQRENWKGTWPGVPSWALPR
# CXCR2 = target: T3, CXCR2 (UniProt P25025 1-360)
# T3 sequence (looked up): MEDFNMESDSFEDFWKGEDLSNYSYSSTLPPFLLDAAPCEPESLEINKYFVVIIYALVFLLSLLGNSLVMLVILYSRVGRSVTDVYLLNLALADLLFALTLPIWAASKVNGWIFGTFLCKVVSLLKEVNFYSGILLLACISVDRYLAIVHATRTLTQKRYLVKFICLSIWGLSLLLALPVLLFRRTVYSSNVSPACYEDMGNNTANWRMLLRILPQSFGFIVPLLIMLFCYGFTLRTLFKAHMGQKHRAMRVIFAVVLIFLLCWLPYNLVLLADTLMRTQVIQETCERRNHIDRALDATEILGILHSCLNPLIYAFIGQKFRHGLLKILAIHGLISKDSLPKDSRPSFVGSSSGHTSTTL
# ADRB2 = ADRB2 (UniProt P07550 1-413)
# KISS1R = KISS1R (UniProt Q969F8 1-398)
# GPR103 = target: T4, GPR103 (UniProt Q96P65 1-431)
# T4 sequence (looked up): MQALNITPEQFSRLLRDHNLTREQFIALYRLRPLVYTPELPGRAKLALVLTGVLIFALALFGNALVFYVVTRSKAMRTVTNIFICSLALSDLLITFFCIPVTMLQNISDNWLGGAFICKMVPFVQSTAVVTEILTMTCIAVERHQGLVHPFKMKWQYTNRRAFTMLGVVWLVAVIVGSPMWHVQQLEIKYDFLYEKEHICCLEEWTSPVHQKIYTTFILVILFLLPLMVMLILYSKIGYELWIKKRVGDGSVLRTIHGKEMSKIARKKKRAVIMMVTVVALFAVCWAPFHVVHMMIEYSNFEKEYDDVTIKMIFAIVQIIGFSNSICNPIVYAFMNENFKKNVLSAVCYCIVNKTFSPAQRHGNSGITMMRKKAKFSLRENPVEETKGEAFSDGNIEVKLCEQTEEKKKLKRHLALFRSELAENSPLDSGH
# ADRA1B = target: T5, ADRA1B (UniProt P35368 1-520)
# T5 sequence (looked up): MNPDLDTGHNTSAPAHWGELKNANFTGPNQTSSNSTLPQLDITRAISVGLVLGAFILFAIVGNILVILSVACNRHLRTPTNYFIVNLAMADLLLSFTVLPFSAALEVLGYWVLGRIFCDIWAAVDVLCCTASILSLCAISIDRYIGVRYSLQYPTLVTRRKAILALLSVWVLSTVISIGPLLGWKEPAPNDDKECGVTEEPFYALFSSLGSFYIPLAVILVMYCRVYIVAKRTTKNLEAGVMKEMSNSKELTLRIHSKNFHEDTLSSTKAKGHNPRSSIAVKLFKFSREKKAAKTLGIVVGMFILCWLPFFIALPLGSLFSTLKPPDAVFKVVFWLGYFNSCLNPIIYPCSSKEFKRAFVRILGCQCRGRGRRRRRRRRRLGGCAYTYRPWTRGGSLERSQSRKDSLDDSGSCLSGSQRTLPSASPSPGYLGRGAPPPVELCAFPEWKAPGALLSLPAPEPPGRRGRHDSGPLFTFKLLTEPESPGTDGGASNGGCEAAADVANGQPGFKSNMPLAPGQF
# FFAR1 = FFAR1 (UniProt O14842 1-300)
# FFAR1, sequence (O14842 whole entry): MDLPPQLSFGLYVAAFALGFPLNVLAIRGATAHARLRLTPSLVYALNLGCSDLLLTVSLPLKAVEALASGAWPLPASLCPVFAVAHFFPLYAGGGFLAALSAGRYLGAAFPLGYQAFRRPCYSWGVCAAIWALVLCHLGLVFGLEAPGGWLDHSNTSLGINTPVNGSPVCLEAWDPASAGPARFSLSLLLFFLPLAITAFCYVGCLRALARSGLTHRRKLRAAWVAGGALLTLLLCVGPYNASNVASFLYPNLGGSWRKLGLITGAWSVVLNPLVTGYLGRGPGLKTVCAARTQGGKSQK
# GPR109A, sequence (Q8TDS4 whole entry): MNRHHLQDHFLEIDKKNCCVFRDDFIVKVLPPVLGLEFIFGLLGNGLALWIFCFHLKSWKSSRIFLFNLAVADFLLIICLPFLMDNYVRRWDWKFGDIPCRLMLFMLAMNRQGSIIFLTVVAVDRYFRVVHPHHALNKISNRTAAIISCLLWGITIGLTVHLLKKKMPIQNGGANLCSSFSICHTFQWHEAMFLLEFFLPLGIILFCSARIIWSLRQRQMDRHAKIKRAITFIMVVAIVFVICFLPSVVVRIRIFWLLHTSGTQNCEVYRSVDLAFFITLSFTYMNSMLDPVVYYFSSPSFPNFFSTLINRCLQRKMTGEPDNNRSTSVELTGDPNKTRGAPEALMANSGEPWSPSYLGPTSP
# NPFFR1, sequence (Q9GZQ6 whole entry): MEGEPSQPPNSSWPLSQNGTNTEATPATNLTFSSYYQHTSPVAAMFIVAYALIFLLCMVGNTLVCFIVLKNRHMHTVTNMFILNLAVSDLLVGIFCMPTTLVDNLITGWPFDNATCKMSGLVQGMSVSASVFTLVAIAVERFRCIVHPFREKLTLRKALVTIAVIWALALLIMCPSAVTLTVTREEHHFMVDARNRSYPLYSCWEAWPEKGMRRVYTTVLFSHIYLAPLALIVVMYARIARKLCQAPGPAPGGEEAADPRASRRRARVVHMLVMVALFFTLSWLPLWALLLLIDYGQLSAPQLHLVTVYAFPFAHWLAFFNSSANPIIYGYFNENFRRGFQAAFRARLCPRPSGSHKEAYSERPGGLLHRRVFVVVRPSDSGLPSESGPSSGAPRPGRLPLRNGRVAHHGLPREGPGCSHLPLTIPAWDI
# CALCRL-RAMP2, sequence (Q16602 23-461 limits assumed, chain 1 of 2): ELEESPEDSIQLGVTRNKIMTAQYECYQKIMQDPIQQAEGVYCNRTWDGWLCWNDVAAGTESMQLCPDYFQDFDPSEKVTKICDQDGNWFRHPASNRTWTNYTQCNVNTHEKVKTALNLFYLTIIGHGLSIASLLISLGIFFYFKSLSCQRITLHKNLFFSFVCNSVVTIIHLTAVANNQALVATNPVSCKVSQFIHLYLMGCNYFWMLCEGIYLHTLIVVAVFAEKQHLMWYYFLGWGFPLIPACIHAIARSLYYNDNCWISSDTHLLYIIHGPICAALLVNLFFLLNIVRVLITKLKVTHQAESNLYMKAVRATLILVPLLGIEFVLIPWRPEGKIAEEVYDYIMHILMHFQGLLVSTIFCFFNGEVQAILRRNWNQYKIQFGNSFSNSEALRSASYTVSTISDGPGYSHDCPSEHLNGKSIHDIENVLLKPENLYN
# CALCRL-RAMP2, sequence (O60895 43-175 limits assumed, chain 2 of 2): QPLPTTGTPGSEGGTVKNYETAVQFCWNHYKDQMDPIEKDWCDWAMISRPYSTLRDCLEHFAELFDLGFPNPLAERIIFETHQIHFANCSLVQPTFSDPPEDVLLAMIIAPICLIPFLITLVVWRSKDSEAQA
# C5L2, sequence (Q9P296 whole entry): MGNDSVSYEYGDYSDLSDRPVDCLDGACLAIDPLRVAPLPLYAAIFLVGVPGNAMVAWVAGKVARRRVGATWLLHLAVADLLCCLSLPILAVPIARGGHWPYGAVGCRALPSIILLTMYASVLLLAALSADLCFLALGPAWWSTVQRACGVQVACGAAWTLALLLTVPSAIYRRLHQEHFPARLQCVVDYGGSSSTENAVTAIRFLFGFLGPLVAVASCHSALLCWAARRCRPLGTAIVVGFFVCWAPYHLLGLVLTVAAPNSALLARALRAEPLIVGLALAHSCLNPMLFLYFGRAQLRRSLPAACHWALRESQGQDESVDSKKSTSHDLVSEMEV
# EBI2, sequence (P32249 whole entry): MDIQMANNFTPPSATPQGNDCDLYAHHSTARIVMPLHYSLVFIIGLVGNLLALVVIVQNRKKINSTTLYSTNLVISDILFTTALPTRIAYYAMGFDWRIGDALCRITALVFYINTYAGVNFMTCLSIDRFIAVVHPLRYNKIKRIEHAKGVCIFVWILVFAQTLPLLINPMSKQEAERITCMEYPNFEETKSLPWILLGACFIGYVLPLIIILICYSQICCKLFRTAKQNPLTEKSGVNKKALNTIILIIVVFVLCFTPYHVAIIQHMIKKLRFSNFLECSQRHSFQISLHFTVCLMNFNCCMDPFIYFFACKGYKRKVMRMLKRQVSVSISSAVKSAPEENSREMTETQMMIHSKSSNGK
# PTHR2, sequence (P49190 25-550 limits assumed): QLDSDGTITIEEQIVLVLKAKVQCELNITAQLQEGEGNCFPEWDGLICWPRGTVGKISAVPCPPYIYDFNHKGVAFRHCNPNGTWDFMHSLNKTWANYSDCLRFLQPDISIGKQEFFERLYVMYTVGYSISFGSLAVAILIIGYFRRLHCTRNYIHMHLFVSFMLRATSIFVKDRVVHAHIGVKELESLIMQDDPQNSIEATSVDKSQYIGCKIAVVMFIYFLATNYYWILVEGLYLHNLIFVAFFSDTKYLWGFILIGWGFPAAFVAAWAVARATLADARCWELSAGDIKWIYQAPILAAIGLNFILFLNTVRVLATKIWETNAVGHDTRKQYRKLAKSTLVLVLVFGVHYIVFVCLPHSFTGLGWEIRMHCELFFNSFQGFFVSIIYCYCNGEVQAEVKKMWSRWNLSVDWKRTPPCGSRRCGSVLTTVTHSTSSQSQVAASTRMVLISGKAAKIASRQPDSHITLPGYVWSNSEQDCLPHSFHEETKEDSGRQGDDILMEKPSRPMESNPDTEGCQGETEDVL
# KISS1R, sequence (Q969F8 whole entry): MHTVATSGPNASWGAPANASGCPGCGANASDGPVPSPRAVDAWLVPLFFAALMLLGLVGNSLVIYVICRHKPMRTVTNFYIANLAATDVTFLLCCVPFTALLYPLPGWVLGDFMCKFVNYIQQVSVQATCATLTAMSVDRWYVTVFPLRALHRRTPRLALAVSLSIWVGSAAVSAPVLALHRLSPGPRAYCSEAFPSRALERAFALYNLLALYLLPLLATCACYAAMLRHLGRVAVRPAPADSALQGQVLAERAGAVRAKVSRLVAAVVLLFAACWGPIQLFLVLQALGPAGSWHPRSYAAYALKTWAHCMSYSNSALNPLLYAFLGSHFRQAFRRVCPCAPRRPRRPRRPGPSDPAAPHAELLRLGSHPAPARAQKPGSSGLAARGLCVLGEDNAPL
binder,measurement,setting,value
"QATVGDVNTDRPGLLDLK (also: synthesised on Rink amide resin, C-terminal amide not given here outright) [octadecaneuropeptide (ODN)]","% Activity, arrestin, antagonist mode, 2.5 uM",GPR109A,-16%
same,"% Activity, arrestin, antagonist mode, 2.5 uM",F2RL1,-9.2%
same,"% Activity, arrestin, antagonist mode, 2.5 uM",NPFFR1,-4.2%
same,"% Activity, arrestin, antagonist mode, 2.5 uM",C5L2,3.5%
same,"% Activity, arrestin, antagonist mode, 2.5 uM",CALCRL-RAMP2,-11.6%
same,"% Activity, arrestin, antagonist mode, 2.5 uM",EBI2,-27.3%
same,"% Activity, arrestin, antagonist mode, 2.5 uM",PTHR2,4.5%
same,"% Activity, arrestin, antagonist mode, 2.5 uM",FPR1,-11.1%
same,"% Activity, arrestin, antagonist mode, 2.5 uM",NPSR1B,15.5%
same,"% Activity, arrestin, antagonist mode, 2.5 uM",CXCR2,-9.8%
same,"% Activity, arrestin, antagonist mode, 2.5 uM",ADRB2,-11.7%
same,"% Activity, arrestin, antagonist mode, 2.5 uM",KISS1R,13.2%
same,"% Activity, arrestin, antagonist mode, 2.5 uM",GPR103,14.6%
same,"% Activity, arrestin, antagonist mode, 2.5 uM",ADRA1B,0.1%
same,"% Activity, arrestin, antagonist mode, 2.5 uM",FFAR1,-3.9%
